# In IntAct's records for PubMed 17981117:
# Biological target: ima4_human KPNA3 (UniProt O00505)
# Sequence (O00505 whole entry): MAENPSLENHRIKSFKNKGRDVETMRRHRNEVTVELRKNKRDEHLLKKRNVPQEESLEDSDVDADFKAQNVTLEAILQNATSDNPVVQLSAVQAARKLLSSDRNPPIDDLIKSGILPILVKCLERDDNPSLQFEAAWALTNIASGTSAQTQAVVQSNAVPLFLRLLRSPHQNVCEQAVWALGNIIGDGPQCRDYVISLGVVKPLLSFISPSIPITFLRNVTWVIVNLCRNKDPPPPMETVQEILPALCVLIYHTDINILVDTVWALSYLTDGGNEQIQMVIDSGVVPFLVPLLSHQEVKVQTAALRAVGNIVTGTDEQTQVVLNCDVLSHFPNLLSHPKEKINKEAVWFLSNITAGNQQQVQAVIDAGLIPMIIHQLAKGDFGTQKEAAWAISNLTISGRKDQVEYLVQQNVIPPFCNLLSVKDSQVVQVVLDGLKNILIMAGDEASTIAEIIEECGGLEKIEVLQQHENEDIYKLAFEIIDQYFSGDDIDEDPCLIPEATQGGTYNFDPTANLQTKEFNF
substance,measurement,value
"Circumsporozoite protein (Plasmodium yoelii yoelii), P06914 R315T;R317T;R319T",effect of a mutation on the interaction,decreasing interaction
